Data published in PMC11995267.

Biological target: T1, GST-tagged first WD40 domain of Elp1, Q06706
T1 chain: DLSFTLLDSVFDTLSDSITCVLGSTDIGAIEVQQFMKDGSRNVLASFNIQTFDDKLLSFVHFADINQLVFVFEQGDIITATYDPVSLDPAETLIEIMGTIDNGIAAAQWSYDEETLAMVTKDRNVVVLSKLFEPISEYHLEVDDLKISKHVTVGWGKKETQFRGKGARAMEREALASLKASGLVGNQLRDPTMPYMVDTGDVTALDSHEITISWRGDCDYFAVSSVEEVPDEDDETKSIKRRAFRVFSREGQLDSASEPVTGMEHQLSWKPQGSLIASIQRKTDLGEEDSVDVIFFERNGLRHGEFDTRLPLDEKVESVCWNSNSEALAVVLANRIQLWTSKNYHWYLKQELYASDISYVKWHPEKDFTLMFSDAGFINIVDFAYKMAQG
Assay: GST pull-down, quantified from Coomassie SDS-PAGE
Settings: chain shown with the change;; parent: est. 1.0; read off a plot

Binder	ratio to parent
recombinant Kti12 (wild type), His-tagged, P34253 K225A; K228A; K235A; R281A; K283A; R284A; K291A (protein) MPLVLFTGYPCSGKTTLAKHLVQLLQSKIDATPSLSKYSITYHSDESLGIKHSDYITSQDERKLRSEIISAVKRDLSKNKIVIVDSLNYIKGFRYQLHCEVKNLSTTFCVIQTLCPPETIFEWNKTSNPNPWEPELLNQLIQRYEEPNSSNRWDSPLFAILTPQDNITDYIDDICKVVFQTSKSAKNSGHNDPLSKGLQKPNSATVLKPASQSNFIQVLDIETSAIIATIMNHIASLTSIGGVSNGTRVIVSEGITDINDDGCFFVDLPIGNVVTLAQLQALAAQFINFNALRDIDQDRIGPLFADYLNKNLN	0.11
recombinant Kti12 (wild type), His-tagged, P34253 K225A; K228A; K235A (protein) MPLVLFTGYPCSGKTTLAKHLVQLLQSKIDATPSLSKYSITYHSDESLGIKHSDYITSQDERKLRSEIISAVKRDLSKNKIVIVDSLNYIKGFRYQLHCEVKNLSTTFCVIQTLCPPETIFEWNKTSNPNPWEPELLNQLIQRYEEPNSSNRWDSPLFAILTPQDNITDYIDDICKVVFQTSKSAKNSGHNDPLSKGLQKPNSATVLKPASQSNFIQVLDIETSAIIATIMNHIASLTSIGGVSNGTRVIVSEGITDINDDGCFFVDLPIGNVVTLAQLQRLKRQFINFNKLRDIDQDRIGPLFADYLNKNLN	0.67
